Experimental findings from the supplement of paper PMC5998384 are described below.

The test system of series [1] is HeLa Kyoto. In words: solubility in G1/S (NP-40 vs SDS abundance) (log2 ratio); higher = more soluble. Conditions: cell cycle stage: G1/S.
Series [2] relates to HeLa Kyoto. In words: thermal stability score vs G1/S (z-score of summed log2 fold changes over temperatures); higher = more thermally stable than in G1/S.
Series [3] has as its system HeLa Kyoto. In words: melting temperature (median over replicates), in situ; higher = more thermally stable.
In series [4] the test system is HeLa Kyoto. In words: solubility change mitosis vs G1/S (difference of NP-40 vs SDS log2 ratios) (log2 ratio difference); higher = more soluble in mitosis.
Where [5] appears, read: cell cycle stage: early G1 (4.5 h after nocodazole release).
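Wherever melting temperature (median over replicates), in situ is given: HeLa Kyoto cells synchronized by double thymidine or nocodazole block, proteins quantified by TMT10plex mass spectrometry, three independent biological replicates.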
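Wherever solubility change mitosis vs G1/S (difference of NP-40 vs SDS log2 ratios) is given: synchronized HeLa Kyoto cells (double thymidine block for G1/S, nocodazole release for mitosis), protein amounts in NP-40 versus SDS lysates quantified by mass spectrometry, three biological replicates.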
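Wherever solubility in G1/S (NP-40 vs SDS abundance) is given: HeLa Kyoto cells arrested at G1/S by double thymidine block, proteins quantified by TMT10plex mass spectrometry in mild NP-40 versus SDS extracts, three biological replicates.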
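Wherever thermal stability score vs G1/S (z-score of summed log2 fold changes over temperatures) is given: synchronized HeLa Kyoto cells, proteins quantified by TMT10plex mass spectrometry, three biological replicates, mitosis taken 0.5 h after nocodazole release, G1/S directly after double thymidine block.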

As to “MAAWKSWTALRLCATVVVLDMVVCKGFVEDLDESFKENRNDDIWLVDFYAPWCGHCKKLEPIWNEVGLEMKSIGSPVKVGKMDATSYSSIASEFGVRGYPTIKLLKGDLAYNYRGPRTKDDIIEFAHRVSGALIRPLPSQQMFEHMQKRHRVFFVYVGGESPLKEKYIDAASELIVYTYFFSASEEVVPEYVTLKEMPAVLVFKDETYFVYDEYEDGDLSSWINRERFQNYLAMDGFLLYELGDTGKLVALAVIDEKNTSVEHTRLKSIIQEVARDYRDLFHRDFQFGHMDGNDYINTLLMDELTVPTVVVLNTSNQQYFLLDRQIKNVEDMVQFINNILDGTVEAQGGDSILQRLKRIVFDAKSTIVSIFKSSPLMGCFLFGLPLGVISIMCYGIYTADTDGGYIEERYEVSKSENENQEQIEESKEQQEPSSGGSVVPTVQEPKDVLEKKKD [TMX3]”, in series [1], the “solubility in G1/S (log2)” value is 0.2. The values for the thermal stability score in series [2] (setting [5]) and in series [2] (cell cycle stage: mitosis) were 0.827 and 3.44, respectively. Besides, the melting temperature in series [3] (cell cycle stage: G1/S) worked out at 54.5 °C; in series [3] (cell cycle stage: mitosis), 54.3 °C. Also, the “solubility change mitosis (log2)” value in series [4] is -0.0543.

In the case of “MAAYSYRPGPGAGPGPAAGAALPDQSFLWNVFQRVDKDRSGVISDTELQQALSNGTWTPFNPVTVRSIISMFDRENKAGVNFSEFTGVWKYITDWQNVFRTYDRDNSGMIDKNELKQALSGFGYRLSDQFHDILIRKFDRQGRGQIAFDDFIQGCIVLQRLTDIFRRYDTDQDGWIQVSYEQYLSMVFSIV [PDCD6]”, in series [1], the “solubility in G1/S (log2)” value was found to be 0.15. In addition, the thermal stability score in series [2] (setting [5]) is 2.71; in series [2] (cell cycle stage: mitosis) it was 2.81. Besides, the melting temperature in series [3] (cell cycle stage: G1/S) turned out to be 49.3 °C; in series [3] (cell cycle stage: mitosis), 50.5 °C. The “solubility change mitosis (log2)” value in series [4] came out at 0.26.

Regarding “MACGFRRAIACQLSRVLNLPPENLITSISAVPISQKEEVADFQLSVDSLLEKDNDHSRPDIQVQAKRLAEKLRCDTVVSEISTGQRTVNFKINRELLTKTVLQQVIEDGSKYGLKSELFSGLPQKKIVVEFSSPNVAKKFHVGHLRSTIIGNFIANLKEALGHQVIRINYLGDWGMQFGLLGTGFQLFGYEEKLQSNPLQHLFEVYVQVNKEAADDKSVAKAAQEFFQRLELGDVQALSLWQKFRDLSIEEYIRVYKRLGVYFDEYSGESFYREKSQEVLKLLESKGLLLKTIKGTAVVDLSGNGDPSSICTVMRSDGTSLYATRDLAAAIDRMDKYNFDTMIYVTDKGQKKHFQQVFQMLKIMGYDWAERCQHVPFGVVQGMKTRRGDVTFLEDVLNEIQLRMLQNMASIKTTKELKNPQETAERVGLAALIIQDFKGLLLSDYKFSWDRVFQSRGDTGVFLQYTHARLHSLEETFGCGYLNDFNTACLQEPQSVSILQHLLRFDEVLYKSSQDFQPRHIVSYLLTLSHLAAVAHKTLQIKDSPPEVAGARLHLFKAVRSVLANGMKLLGITPVCRM [RARS2]”, the “solubility in G1/S (log2)” value in series [1] is -0.144. Moreover, the thermal stability score in series [2] (setting [5]) and in series [2] (cell cycle stage: mitosis) was -0.261 each time. For the same sequence, the melting temperature came to 51.7 °C in series [3] (cell cycle stage: G1/S) and 50.8 °C in series [3] (cell cycle stage: mitosis). The “solubility change mitosis (log2)” value in series [4] is -0.141.
